Results: PMC10645729

T1: human ribonucleotide reductase large subunit RRM1 (human) (UniProt P23921)
T1 sequence: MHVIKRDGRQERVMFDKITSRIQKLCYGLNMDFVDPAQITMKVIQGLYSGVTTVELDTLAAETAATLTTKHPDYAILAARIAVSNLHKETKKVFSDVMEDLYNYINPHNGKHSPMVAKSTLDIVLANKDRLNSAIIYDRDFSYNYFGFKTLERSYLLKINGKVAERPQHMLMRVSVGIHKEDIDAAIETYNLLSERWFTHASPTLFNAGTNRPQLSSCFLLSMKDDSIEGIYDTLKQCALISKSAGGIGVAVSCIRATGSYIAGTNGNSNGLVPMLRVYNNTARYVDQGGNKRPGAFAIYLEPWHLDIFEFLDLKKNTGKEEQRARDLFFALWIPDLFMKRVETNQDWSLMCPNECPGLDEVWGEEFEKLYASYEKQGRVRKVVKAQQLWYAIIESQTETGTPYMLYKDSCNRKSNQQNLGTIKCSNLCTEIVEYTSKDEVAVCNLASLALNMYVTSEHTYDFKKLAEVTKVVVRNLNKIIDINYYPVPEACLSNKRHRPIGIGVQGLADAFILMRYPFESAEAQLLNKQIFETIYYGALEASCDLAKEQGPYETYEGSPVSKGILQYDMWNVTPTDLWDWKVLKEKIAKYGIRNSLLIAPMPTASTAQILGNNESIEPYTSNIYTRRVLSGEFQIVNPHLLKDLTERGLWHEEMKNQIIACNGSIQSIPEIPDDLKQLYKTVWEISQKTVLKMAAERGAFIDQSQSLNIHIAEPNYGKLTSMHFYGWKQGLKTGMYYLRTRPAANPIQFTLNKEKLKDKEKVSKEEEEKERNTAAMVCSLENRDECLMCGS


target: T1, human ribonucleotide reductase large subunit RRM1 (human)

Row | RNR activity of the reconstituted complex (CDP to dCDP, HPLC), percent of wild-type hRRM2B; hRRM1 2 μM, hRRM2B 6 μM (% of wild type) | Binder
1 | 33 | hRRM2B N221S (enzyme) MGDPERPEAAGLDQDERSSSDTNESEIKSNEEPLLRKSSRRFVIFPIQYPDIWKMYKQAQASFWTAEEVDLSKDLPHWNKLKADEKYFISHILAFFAASDGIVNENLVERFSQEVQVPEARCFYGFQILIENVHSEMYSLLIDTYIRDPKKREFLFNAIETMPYVKKKADWALRWIADRKSTFGERVVAFAAVEGVFFSGSFAAIFWLKKRGLMPGLTFSSELISRDEGLHCDFACLMFQYLVNKPSEERVREIIVDAVKIEQEFLTEALPVGLIGMNCILMKQYIEFVADRLLVELGFSKVFQAENPFDFMENISLEGKTNFFEKRVSEYQRFAVMAETTDNVFTLDADF
2 | 11.7 | hRRM2B F206G (enzyme) MGDPERPEAAGLDQDERSSSDTNESEIKSNEEPLLRKSSRRFVIFPIQYPDIWKMYKQAQASFWTAEEVDLSKDLPHWNKLKADEKYFISHILAFFAASDGIVNENLVERFSQEVQVPEARCFYGFQILIENVHSEMYSLLIDTYIRDPKKREFLFNAIETMPYVKKKADWALRWIADRKSTFGERVVAFAAVEGVFFSGSFAAIGWLKKRGLMPGLTFSNELISRDEGLHCDFACLMFQYLVNKPSEERVREIIVDAVKIEQEFLTEALPVGLIGMNCILMKQYIEFVADRLLVELGFSKVFQAENPFDFMENISLEGKTNFFEKRVSEYQRFAVMAETTDNVFTLDADF

The next lines start with the binder.

Row | Binder | RNR activity of the reconstituted complex (CDP to dCDP, HPLC), percent of wild-type hRRM2B; hRRM1 2 μM, hRRM2B 6 μM (% of wild type)
3 | hRRM2B F202G (enzyme) MGDPERPEAAGLDQDERSSSDTNESEIKSNEEPLLRKSSRRFVIFPIQYPDIWKMYKQAQASFWTAEEVDLSKDLPHWNKLKADEKYFISHILAFFAASDGIVNENLVERFSQEVQVPEARCFYGFQILIENVHSEMYSLLIDTYIRDPKKREFLFNAIETMPYVKKKADWALRWIADRKSTFGERVVAFAAVEGVFFSGSGAAIFWLKKRGLMPGLTFSNELISRDEGLHCDFACLMFQYLVNKPSEERVREIIVDAVKIEQEFLTEALPVGLIGMNCILMKQYIEFVADRLLVELGFSKVFQAENPFDFMENISLEGKTNFFEKRVSEYQRFAVMAETTDNVFTLDADF | 21.5
4 | hRRM2B F198G (enzyme) MGDPERPEAAGLDQDERSSSDTNESEIKSNEEPLLRKSSRRFVIFPIQYPDIWKMYKQAQASFWTAEEVDLSKDLPHWNKLKADEKYFISHILAFFAASDGIVNENLVERFSQEVQVPEARCFYGFQILIENVHSEMYSLLIDTYIRDPKKREFLFNAIETMPYVKKKADWALRWIADRKSTFGERVVAFAAVEGVFGSGSFAAIFWLKKRGLMPGLTFSNELISRDEGLHCDFACLMFQYLVNKPSEERVREIIVDAVKIEQEFLTEALPVGLIGMNCILMKQYIEFVADRLLVELGFSKVFQAENPFDFMENISLEGKTNFFEKRVSEYQRFAVMAETTDNVFTLDADF | 19.1
